Columns and labels:
[1] = target: ras p21 proteins of the Calu-1 lung carcinoma cell line (K-ras Cys12 mutation) (human) (UniProt P01116); assay: flow cytometry, fixed permeabilised Calu-1 cells, RAS 10 at 3 µg/ml
[2] = target: ras p21 proteins of the Calu-1 lung carcinoma cell line (K-ras Cys12 mutation) (human) (UniProt P01116); assay: flow cytometry, fixed permeabilised Calu-1 cells, RAS 10 at 1 µg/ml
[3] = target: ras p21 proteins of the SW480 colon carcinoma cell line (K-ras Val12 mutation) (human) (UniProt P01116); assay: flow cytometry, fixed permeabilised SW480 cells, RAS 10 at 1 µg/ml
[4] = target: ras p21 proteins of the HT-29 colon carcinoma cell line (no known ras codon 12 point mutation) (human) (UniProt P01116); assay: flow cytometry, fixed permeabilised HT29 cells, RAS 10 at 1 µg/ml
[5] = target: ras p21 proteins of the HT-29 colon carcinoma cell line (no known ras codon 12 point mutation) (human) (UniProt P01116); assay: flow cytometry, fixed permeabilised HT29 cells, RAS 10 at 10 µg/ml
[6] = target: ras p21 proteins of the HT-29 colon carcinoma cell line (no known ras codon 12 point mutation) (human) (UniProt P01116); assay: flow cytometry, fixed permeabilised HT29 cells, RAS 10 at 3 µg/ml
[7] = target: ras p21 proteins of the SW480 colon carcinoma cell line (K-ras Val12 mutation) (human) (UniProt P01116); assay: flow cytometry, fixed permeabilised SW480 cells, RAS 10 at 10 µg/ml
[8] = target: ras p21 proteins of the Calu-1 lung carcinoma cell line (K-ras Cys12 mutation) (human) (UniProt P01116); assay: flow cytometry, fixed permeabilised Calu-1 cells, RAS 10 at 10 µg/ml
[9] = target: ras p21 proteins of the SW480 colon carcinoma cell line (K-ras Val12 mutation) (human) (UniProt P01116); assay: flow cytometry, fixed permeabilised SW480 cells, RAS 10 at 3 µg/ml
[10] = target: HLA-A2 (human); assay: T2 bioassay (peptide 50 µg/ml + b2m 3 µg/ml, overnight), flow cytometry, stained with anti-HLA-A2 MAb
[11] = target: HLA-A2 (human); assay: T2 bioassay (peptide 50 µg/ml + b2m 3 µg/ml, overnight), flow cytometry, stained with pan class I MAb W6/32
[12] = target: MHC class I (HLA class I) molecules; assay: flow cytometry, Calu-1 cells, W6/32
[13] = target: MHC class I (HLA class I) molecules; assay: T2 bioassay, no peptide (b2m 3 µg/ml only), flow cytometry, staining of T2 cells with pan class I MAb W6/32; baseline
[14] = target: MHC class I (HLA class I) molecules; assay: flow cytometry, HT29 cells, W6/32
[15] = target: MHC class I (HLA class I) molecules; assay: flow cytometry, SW480 cells, W6/32
[16] = target: ras p21 proteins of the HT-29 colon carcinoma cell line (no known ras codon 12 point mutation) (human) (UniProt P01116); assay: sandwich ELISA, RAS 10 capture of HT29 lysate, rat anti-mouse B7.1 in place of the detection MAb
[17] = target: ras p21 proteins of the Calu-1 lung carcinoma cell line (K-ras Cys12 mutation) (human) (UniProt P01116); assay: sandwich ELISA, RAS 10 capture of Calu-1 lysate, rat anti-mouse B7.1 in place of the detection MAb
[18] = target: ras p21 proteins of the SW480 colon carcinoma cell line (K-ras Val12 mutation) (human) (UniProt P01116); assay: sandwich ELISA, RAS 10 capture of SW480 lysate, rat anti-mouse B7.1 in place of the detection MAb
[19] = target: ras p21 proteins of the Calu-1 lung carcinoma cell line (K-ras Cys12 mutation) (human) (UniProt P01116); assay: cell-based or functional assay
[20] = target: ras p21 proteins of the Calu-1 lung carcinoma cell line (K-ras Cys12 mutation) (human) (UniProt P01116); assay: sandwich ELISA, RAS 10 capture, Y13-238 detection, Calu-1 lysate 7.5 µg protein
[21] = target: ras p21 proteins of the SW480 colon carcinoma cell line (K-ras Val12 mutation) (human) (UniProt P01116); assay: sandwich ELISA, RAS 10 capture, Y13-238 detection, SW480 lysate 75 µg protein
[22] = target: ras p21 proteins of the Calu-1 lung carcinoma cell line (K-ras Cys12 mutation) (human) (UniProt P01116); assay: sandwich ELISA, RAS 10 capture, Y13-238 detection, Calu-1 lysate 75 µg protein
[23] = target: ras p21 proteins of the HT-29 colon carcinoma cell line (no known ras codon 12 point mutation) (human) (UniProt P01116); assay: sandwich ELISA, RAS 10 capture, Y13-238 detection, HT29 lysate 7.5 µg protein
[24] = target: ras p21 proteins of the HT-29 colon carcinoma cell line (no known ras codon 12 point mutation) (human) (UniProt P01116); assay: sandwich ELISA, RAS 10 capture, Y13-238 detection, HT29 lysate 75 µg protein
[25] = target: ras p21 proteins of the SW480 colon carcinoma cell line (K-ras Val12 mutation) (human) (UniProt P01116); assay: sandwich ELISA, RAS 10 capture, Y13-238 detection, SW480 lysate 7.5 µg protein
[26] = target: HLA-A2 (human); assay: T2 bioassay, isotype-matched control MAb staining of T2 cells incubated with ras5-12(V12)
[27] = target: HLA-A2 (human); assay: T2 bioassay, isotype-matched control MAb staining of T2 cells incubated with ras5-14(V12)
[28] = target: HLA-A2 (human); assay: T2 bioassay, isotype-matched control MAb staining of T2 cells incubated with ras5-14(D12)
[29] = target: ras p21 proteins of the SW480 colon carcinoma cell line (K-ras Val12 mutation) (human) (UniProt P01116); assay: flow cytometry, fixed permeabilised SW480 cells, isotype-matched control UPC-10
[30] = target: HLA-A2 (human); assay: T2 bioassay, isotype-matched control MAb staining of T2 cells incubated with ras5-14(G12)
[31] = target: HLA-A2 (human); assay: T2 bioassay, no peptide, flow cytometry, isotype-matched control MAb staining of T2 cells
[32] = target: HLA-A2 (human); assay: T2 bioassay, isotype-matched control MAb staining of T2 cells incubated with CEA571-579
[33] = target: HLA-A2 (human); assay: T2 bioassay, isotype-matched control MAb staining of T2 cells incubated with ras5-13(V12)
[34] = target: HLA-A2 (human); assay: T2 bioassay, isotype-matched control MAb staining of T2 cells incubated with ras8-16(V12)
[35] = target: ras p21 proteins of the HT-29 colon carcinoma cell line (no known ras codon 12 point mutation) (human) (UniProt P01116); assay: flow cytometry, fixed permeabilised HT29 cells, isotype-matched control UPC-10
[36] = target: ras p21 proteins of the Calu-1 lung carcinoma cell line (K-ras Cys12 mutation) (human) (UniProt P01116); assay: flow cytometry, fixed permeabilised Calu-1 cells, isotype-matched control UPC-10
[37] = target: HLA-A2 (human); assay: T2 bioassay, isotype-matched control MAb staining of T2 cells incubated with ras5-17(D12)
[38] = target: HLA-A2 (human); assay: T2 bioassay, isotype-matched control MAb staining of T2 cells incubated with ras5-14(C12)

pan-ras MAb, clone RAS 10 (antibody)
MFI [1]: 225
Percent Positive Cells [1]: 87.8%
MFI [2]: 176
Percent Positive Cells [2]: 59.8%
MFI [3]: 273
Percent Positive Cells [3]: 67%
MFI [4]: 233
Percent Positive Cells [4]: 58.6%
MFI [5]: 423
Percent Positive Cells [5]: 93.1%
MFI [6]: 304
Percent Positive Cells [6]: 83.4%
MFI [7]: 631
Percent Positive Cells [7]: 83.4%
MFI [8]: 332
Percent Positive Cells [8]: 90.6%
MFI [9]: 386
Percent Positive Cells [9]: 82.8%

CEA571-579 peptide (from UniProt P06731 571-579)
MFI [10]: 680
MFI [11]: 991

pan HLA class I MAb W6/32 (antibody)
MFI [12]: 1620
Percent Positive Cells [12]: 93.4%
MFI [13]: 230
MFI [14]: 1310
Percent Positive Cells [14]: 93.5%
MFI [15]: 1180
Percent Positive Cells [15]: 84.2%

rat IgG2a anti-mouse B7.1 MAb (antibody)
Immunoreactivity (A490) [16]: 0.283 A490
Immunoreactivity (A490) [17]: 0.299 A490
Immunoreactivity (A490) [18]: 0.333 A490

pan-ras MAb, clone RAS 10
Proliferation Response (3H-thymidine uptake, cpm) of the CD4+ T cell line of patient 43 to Calu-1 extract (250 µg protein) on wells coated with RAS 10, with BLCL [19]: 80500 cpm

ras MAb, clone Y13-238 (antibody)
Immunoreactivity (A490) [20]: 1.29 A490
Immunoreactivity (A490) [21]: 1.59 A490
Immunoreactivity (A490) [22]: 1.5 A490
Immunoreactivity (A490) [23]: 0.99 A490
Immunoreactivity (A490) [24]: 1.49 A490
Immunoreactivity (A490) [25]: 1.5 A490

isotype-matched (IgG2a) MAb UPC-10 (antibody)
MFI [26]: 44.2
MFI [27]: 38.1
MFI [28]: 50.8
Percent Positive Cells [29]: 5.3%
MFI [30]: 41.3
MFI [31]: 84
MFI [32]: 48.4
MFI [33]: 54.1
MFI [34]: 39.6
Percent Positive Cells [35]: 11.6%
Percent Positive Cells [36]: 1%
MFI [37]: 46.5
MFI [38]: 61.4

isotype-matched (IgG2a) MAb UPC-10
Proliferation Response (3H-thymidine uptake, cpm) of the CD4+ T cell line of patient 43 to Calu-1 extract (250 µg protein) on wells coated with isotype-matched MAb UPC-10, with BLCL [19]: 7320 cpm
